Measurements taken from patent US11992557B2, “Collagenase loaded liposomes for enhancing drug delivery” (TECHNION RESEARCH & DEVELOPMENT FOUNDATION LIMITED, priority 2018, dated 2024).

Legend:
Wistar rats = details: rat, in vivo
Experimental: All rats were anesthetized in two stages. In the first stage the rats were anesthetized with isoflurane. In the second stage each rat was injected a mixture of Ketamine and Xylazine intraperitoneally. After each procedure, the rats were transferred and kept in an incubator, with constant oxygen flow, until they reached full recovery.
An ordinary orthodontic Ni—Ti closed coil spring (9 mm closed coil spring nickel and titanium alloy that has 2 eyelets with an inner radius of 0.76 mm) was used to connect the 1st molar in the upper pallet to the front upper incisors of the rat. The Ni—Ti coil spring was glued to the tooth (3M UNITEK), which generates constant force of 200 grams (1.96 N) when extended between 12-24 mm. The force applied in the oral cavity was the same on all the rats that participated in the experiment. […] The procedure of installing the Ni—Ti coil closed spring was performed using human orthodontics equipment and materials. The 1st upper molar and the upper incisors were dried and cleaned using cotton swabs to remove any debris that accumulates. […]
Collagenase-liposomes (see above Liposome Preparation), or a similar concentration of free collagenase, were applied directly to the sulcus. […] The distance between the eyelet of the Ni—Ti closed coil on the first molar and the back of the upper incisors was measured and recorded using the digital caliper. […]

pancreatic tumors = assay: Penetrance of gold nanoparticles after pretreatment of PDAC mice; details: mouse, in vivo
Experimental: In order to quantify the extent to which encapsulation of collagenase in liposomes improved drug penetrance over free collagenase, PDAC mice were pretreated (intravenous injection twice, 24 hours apart) with empty liposomes, free collagenase or liposome encapsulated collagenase and then 24 hours later gold nanoparticles of various sizes. Specifically, 5, 20, and 100 nm gold nanoparticles were injected and gold penetrance to various organs was monitored 24 hours later. Liposome encapsulated collagenase increased the penetrance of 100 nm (FIG. 6B) and 20 nm (FIG. 6C) gold particles into pancreatic tumors as compared to free collagenase and empty liposomes. […] The experiment was repeated, and more organs/bodily fluids were examined, but similar results were obtained (FIG. 6E-G).

[1] = system: fluorescein conjugated gelatin substrate
Experimental: Collagenase activity assay. Collagenase type-I activity was determined using gelatin with fluorescein conjugate as a substrate (ThermoFisher). Collagenase (100 μl) was mixed with 80 μl of reaction buffer (0.05M Tris-HCl, 0.15M NaCl, 5 mM CaCl2, 0.2 mM sodium azide at pH 7.6) and 20 μl of 0.125 mg/ml gelatin diluted in PBS. The fluorescent intensity was measured every 15 seconds over a period of 3 minutes at 485 nm and 530 nm (excitation/emission) using an Infinite 200PRO. Collagenase activity was measured at 37° C., where plasma or PBS served as control.
To test the collagenase activity, liposomal collagenase after dialysis or free collagenase in phosphate buffered saline at a concentration of 5 ug/ml, were incubated at 37° C. Every hour, a collagenase sample was assessed for its capacity to cleave a fluorescein conjugated gelatin substrate (Thermo Fisher). Activity of the released collagenase was determined in accordance to the change in fluorescence over 3 minutes, relative to the fluorescence at t=0.
In order to quantify the protective nature of liposome encapsulation versus free collagenase, both free enzyme and encapsulated enzyme were incubated in PBS or serum and protein activity was measured by Enzcheck Assay at 0, 1, 6 and 24 hours.

[2] = system: human pterygium transplanted to their eyes; assay: Free collagenase I injection to the conjunctiva of mice with transplanted human pterygium; assay type: in vivo; details: 10 mg/ml by injection to the conjunctiva
Experimental: Pterygium is known to comprise four types of collagen: types I, II, III and IV. The stroma of pterygium and normal conjunctival tissue contains collagen types I, II, and […]. To test the ability of collagenase to break up and treat pterygium, mice that had human pterygium transplanted to their eyes were administered 10 mg/ml free collagenase I by injection to the conjunctiva.

PDAC tumors = assay: Effect of the collagenase treatment on pancreatic uptake of Gd-/iodine-liposomes; assay type: in vivo, C57BL/6 mice; details: PDAC mice, Gd-liposomes after pretreatment
Experimental: Control groups included injections of empty liposomes (n=10 mice), free collagenase (n=5 mice) or no injection at all (n=3 mice) instead of collagenase encapsulating liposomes. […] 24 hours later, the animals were euthanized, and their organs were harvested. The amount of Gadolinium in each organ was analyzed using elemental analysis (ICP-EOS, Agilent) at wavelengths of 335.048 and 342.246 nm. The organs were harvested, weighed and then burnt at 550° C. overnight. The burnt organs were dissolved in 5 ml of 1% nitric-acid and filtered using […] filters (Millipore Millex-GV, Merck, Darmstadt, Germany). The Gd concentration in the organs was measured using an ICP-EOS elemental analysis.
Micro-CT scan. Mice were imaged using an IVIS Spectrum CT Pre-clinical in-vivo imaging system (PerkinElmer, MA, USA) with the following parameters: CT was set to 50 ms, total projections were 720, voltage was set to 50 kV while the current to 1 mA the binning was determined to 2 and the X-ray filter was set to 440 A1. Hounsfield calibration was performed in air-0.004168 and water-0.5513. Two groups of tumors bearing mice (n=5 each) were divided to control and test group. The mice were weighed weekly and tumor progression was monitored by weekly IVIS scans (PerkinElmer). […] Tumor dimensions were assessed using the ROI tool in the IVIS imaging software (Living Image, PerkinElmer).

[3] = system: fluorescein conjugated gelatin; assay: Collagenase activity test in various conditions (temperature, ethanol, pH, extrusion pressure); assay type: biochemical
Experimental: Collagenase activity assay. Collagenase activity was assessed using fluorescein conjugated gelatin (ThermoFisher) as a substrate. The enzyme solution was added to the substrate solution together with a reaction buffer (0.5 M Tris-HCl, 1.5 M NaCl, 50 mM CaCl2, 2 mM sodium azide, pH 7.6). Fluorescence intensity for every sample was measured every 15 seconds for 3 minutes with excitation set at 485 nm and emission at 530 nm using the Infinite 200 PRO multimode reader (TECAN, Mannedorf, Switzerland). A linear incline was determined, and collagenase concentration was calculated using a calibration curve generated by collagenase samples of known concentrations.
Having established that collagenase's activity drops rapidly at 37 degrees (FIG. 7B), other parameters during liposome production that might affect the protein's integrity and function were examined.
Lastly, the activity of free collagenase at various pH was assayed.

Collagen type-I bundles = assay: Stress/strength profile of collagen fibers exposed to proteolytic enzymes; assay type: biochemical, Wistar rats
Experimental: Stress/strength profile of collagen fibers exposed to collagenase: Collagen type-I bundles, sourced from the tails of Wistar rats, were suspended using a LLOYD LF-Plus Digital Material Tester force machine. The bundles were suspended inside a bath loaded with a buffer that simulates the composition of the oral fluid: an isotonic solution, pH 6.7 at 37° C. complemented with electrolytes including sodium, potassium, calcium, magnesium, bicarbonate, and phosphates. The bundles, 0.8-1.2 mm in diameter, were cut into two equal 4-cm sections, acting as an internal control. Collagenase type-I from Clostridium histolyticum (Sigma-Aldrich) was added at different concentrations and the stress/strength profile of the collagen fibers was recorded as a function of the collagenase treatment. The Ultimate Tensile Strength (UTS) of the collagen bundle was determined for each collagenase concentration.
Collagen regeneration SEM. Collagen bundles were mounted on carbon tape and imaged using a Zeiss UltraPlus high-resolution scanning electron microscope (HR-SEM) equipped with an Everhart-Thornley secondary electron detector. Each bundle was then cut in half. The untreated half acted as an internal control for each treated bundle. All data points are the mean of 14-20 experimental points. Collagen fibers were exposed to 0.05 mg/ml collagenase for 8 hours. Ethylenediaminetetraacetic acid (EDTA; ST. Louis, USA), 3 mM along with two drops of NH4Cl 1M buffer, were added for 30 minutes in order to retard the enzyme's activity. Subsequently, the media was removed, and the treated bundles were washed two times with new growth media to allow bundle regeneration.
Collagen fibers regain their initial mechanical strength post nano-surgery. Collagen fibers were sourced from tails of Wistar rats. Each bundle was cut in half. The untreated half acted as an internal control for each treated bundle. All presented data points are the mean of 14-20 experimental points. Collagen fibers were exposed to collagenase at concentration of 0.05 mg/ml for 8 hours in order to weaken the bundles. […] Subsequently, the media was removed, and the treated bundles were washed twice with new growth media.
Two plant-based proteolytic enzymes were also tested for their ability to relax collagen: bromelain and papain. These plant-based enzymes are not specific to collagen but have been reported to act on collagen fibers. Collagens fiber strength was tested with a force machine in the presence of 1 mg/ml collagenase, bromelain or papain. The force required to break a bundle of fibers with no treatment was set to 1, and the force required to break the treated fiber bundles was standardized to this force. […] At this same time point bromelain and papain reduced the strength of the collagen fibers such that less than 70% of the control force was needed to rupture the fibers. […] Thus, both papain and bromelain served as effective collagen relaxing enzymes, though much weaker ones than […].

fibroblasts = assay: Fibroblast adherence to collagen fibers during collagenase treatment; assay type: cell-based; details: during collagenase treatment of the fiber
Experimental: Fibroblast adherence to collagen fibers. The fibroblast morphological change was recorded using The LSM 710-laser scanning confocal microscope (Zeiss) over a period of 90 minutes. The fibroblasts nuclei were stained using Hoechst 33342 (Thermo Fisher Scientific, MA, USA). The Hoechast 16.23 mM stock solution was diluted 1:2000 in Dulbecco's Phosphate Buffer Saline (DPBS, Sigma-Aldrich, St. Louis, USA) and the collagen fiber buffer was removed. 3 ul of the diluted solution was added, followed by 10 minutes light protected incubation. The staining solution was removed, and the fiber was washed 3 times in PBS.

PDAC collagen = assay: Collagen analysis after ex-vivo collagenase treatment of pancreatic tumor slices; set-up: species or system mice; details: PDAC treated with 0.05-0.2 mg/ml collagenase ex-vivo, Masson's trichrome
Experimental: Collagen analysis after the collagenase treatment. Pancreatic tumors were harvested from tumor bearing mice, six weeks after the initiation of the tumor model. Each tumor was sliced horizontally to 1 cm thick slices. All the extracted slices were mixed and randomly chosen for different treatments groups. Treatments included incubation in DMEM medium (Sigma-Aldrich) with collagenase type-I (Sigma-Aldrich) at increasing concentrations: 0.05, 0.1 or 0.2 mg/ml for either 8 or 24 hours. Following the enzymatic treatment, the tumor slices were sectioned, fixated in 10% formalin (Sigma-Aldrich) and stained with Masson's trichrome. Computerized morphometry was utilized to quantitate the fraction of the fibrotic area out of the total area of the tumor in each sample. Computerized morphometry of the collagen was used to determine fibrosis fraction within each sample. Masson's trichrome staining was performed to identify the pancreatic fibrosis. Then, stained slides were entirely scanned at magnification of X20 using the Panoramic MIDI automatic digital slide scanner (3DHistech, Budapest, Hungary). The whole slide was analyzed in Image Pro Premier 9.2 software (Media Cybernetics, MD, USA). Fibrosis area was calculated according to the blue staining within the tissue, and the tissue area was calculated by choosing the whole tissue with the machine ‘color picker tool’.

For collagenase, the “inflammation of the gingival tissue (histology)” value (Wistar rats) was “mild inflammation”, the “penetrance of 5 nm particles into tumors” value (pancreatic tumors) was “decreased penetrance” and the “half-life of collagenase once activated” value [1] was “several hours”. For the same substance, the “effect on the eye” value [2] was “general breakdown of the eye, with extreme inflammation and damage seen throughout the eye”, the “pancreatic uptake by elemental analysis of Gd” value (PDAC tumors) was 15.1 μg-Gd/g-pancreas and the “activity of free collagenase at various pH” value [3] was “Basic pH was found to result in improved collagenase activity”. The “activity of free enzyme versus temperature” value ([3]; 50 degrees or greater) was “completely abrogated protein function”, the “activity of free enzyme in ethanol” value ([3]; as little as 20% ethanol) was “completely abrogated protein function” and the “protein activity versus ethanol during liposome production” value ([3]; ethanol procedure) was “Inclusion of any amount of ethanol was also found to denature the protein and reduce its activity”. For the same substance, the “protein activity versus extrusion force” value ([3]; ethanol procedure) was “a force above 10 bar during extrusion was found to have a negative effect on protein activity”, the “protein activity versus temperature during liposome production” value ([3]; ethanol procedure) was “temperatures above 25 began reducing protein activity” and the “force needed to rupture the fibers, standardized to control force” value (Collagen type-I bundles; 1 mg/ml, 4 hours of treatment) was “almost no force”. The “time to degrade the collagen fibers” value (Collagen type-I bundles; 0.5 and 1 mg/mL collagenase) was “less than 10 hours”, the “initial strength profile regained by collagen fibers” value (Collagen type-I bundles; after the collagenase activity was retarded (16 h)) was ~90% and the “therapeutic window: fibers relaxed but not fully degraded” value (Collagen type-I bundles; oral physiological conditions) was 0.05 to 0.1 mg/mL. For the same substance, the “decrease of collagen fiber strength” value (Collagen type-I bundles; therapeutic dose of collagenase (0.05 mg/ml, 8 h)) was “approximately 50%”, the “fibroblast detachment and viability” value (fibroblasts) was “fibroblast viability was retained” and the “level of fibrotic tissue” value (PDAC collagen) was 1.28±0.3%.
